Data: paper PMC7896311, “Structure of the SARS-CoV-2 RNA-dependent RNA polymerase in the presence of favipiravir-RTP”

Target: nsp12 (RNA-dependent RNA polymerase);nsp7;nsp8 (SARS-CoV-2;SARS-CoV-2;SARS-CoV-2, UniProt P0DTD1;P0DTD1;P0DTD1 4393-5324;3860-3942;3943-4140, ||)
Assay: cryo-EM structure (2.5 A)
Details: protein: recombinant;recombinant;recombinant; tags: C-terminal TEV site-double StrepII on the nsp5-nsp7-nsp8-nsp12 polyprotein;;; copies: 1;1;2

B1: primer:template RNA duplex (dsRNA)
RNA 1: CAGUGCUAUGUGAGAUUAAGUUAU
RNA 2: UUUUUCAUAACUUAAUCUCACAUAGCACUG
  binding result: binds
